# In IntAct's records for PubMed 29039417:
# B1: Isoform 2 of Bardet-Biedl syndrome 7 protein (Homo sapiens), Q8IWZ6-2 (parent)
# chain: MDLILNRMDYLQVGVTSQKTMKLIPASRHRATQKVVIGDHDGVVMCFGMKKGEAAAVFKTLPGPKIARLELGGVINTPQEKIFIAAASEIRGFTKRGKQFLSFETNLTESIKAMHISGSDLFLSASYIYNHYCDCKDQHYYLSGDKINDVICLPVERLSRITPVLACQDRVLRVLQGSDVMYAVEVPGPPTVLALHNGNGGDSGEDLLFGTSDGKLALIQITTSKPVRKWEIQNEKKRGGILCIDSFDIVGDGVKDLLVGRDDGMVEVYSFDNANEPVLRFDQMLSESVTSIQGGCVGKDSYDEIVVSTYSGWVTGLTTEPIHKESGPGEELKINQEMQNKISSLRNELEHLQYKVLQERENYQQSSQSSKAKSAVPSFGINDKFTLNKDDASYSLILEVQTAIDNVLIQSDVPIDLLDVDKNSAVVSFSSCDSESNDNFLLATYRCQADTTRLELKIRSIEGQYGTLQAYVTPRIQPKTCQVRQYHIKPLSLHQRTHFIDHDRPMNTLTLTGQFSFAEVHSWVVFCLPEVPEKPPAGECVTFYFQNTFLDTQLESTYRKGEGVFKSDNISTISILKDVLSKEATKRKINLNISYEINEVSVKHTLKLIHPKLEYQLLLAKKVQLIDALKELQIHEGNTNFLIPEYHCILEEADHLQEEYKKQPAHLERLYG
# partner: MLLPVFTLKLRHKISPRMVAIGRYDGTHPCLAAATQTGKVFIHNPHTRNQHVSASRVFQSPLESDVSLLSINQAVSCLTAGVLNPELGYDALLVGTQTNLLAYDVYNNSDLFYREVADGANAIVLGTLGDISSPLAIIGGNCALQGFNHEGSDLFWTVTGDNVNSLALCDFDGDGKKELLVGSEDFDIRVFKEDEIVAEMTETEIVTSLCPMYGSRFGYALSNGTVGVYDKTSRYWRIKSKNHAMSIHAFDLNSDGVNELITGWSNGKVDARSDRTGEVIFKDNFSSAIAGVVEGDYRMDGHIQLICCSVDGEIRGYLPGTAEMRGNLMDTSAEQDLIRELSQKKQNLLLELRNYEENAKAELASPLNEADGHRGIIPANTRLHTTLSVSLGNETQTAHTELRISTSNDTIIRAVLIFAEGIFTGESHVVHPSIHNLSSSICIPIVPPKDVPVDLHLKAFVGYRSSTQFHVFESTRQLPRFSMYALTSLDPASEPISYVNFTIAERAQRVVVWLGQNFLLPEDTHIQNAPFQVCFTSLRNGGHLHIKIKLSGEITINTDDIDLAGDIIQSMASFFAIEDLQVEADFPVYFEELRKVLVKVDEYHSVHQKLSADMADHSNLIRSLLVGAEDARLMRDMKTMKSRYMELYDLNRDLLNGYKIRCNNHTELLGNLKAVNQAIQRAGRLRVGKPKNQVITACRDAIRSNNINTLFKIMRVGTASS
# Variants of: B1
# Conditions: with bbs2_human BBS2, Q9BXC9
row,Variant,effect of a mutation on the interaction
1,Y465A,with no effect
2,Q469A,disrupting interaction strength
3,Q469K,with no effect
4,Q469E,with no effect
5,L454K,with no effect
6,L454A,with no effect
7,L454E,with no effect
8,R484E,with no effect
9,R484A,with no effect
10,R484K,with no effect
11,T452E,with no effect
12,T452K,with no effect
13,T452A,with no effect
14,E462A,with no effect
15,E462K,with no effect
16,K479E,with no effect
17,K479A,with no effect
18,I488K,with no effect
19,I488E,with no effect
20,I488A,with no effect
21,R453E,with no effect
22,R453K,with no effect

row,Variant,effect of a mutation on the interaction
1,R453A,with no effect
2,Y486A,with no effect
3,Y486K,with no effect
4,Y486E,with no effect
5,C481A,with no effect
6,C481E,with no effect
7,C481R,disrupting interaction strength
8,C481K,with no effect
9,A470K,with no effect
10,A470E,with no effect
11,H487A,with no effect
12,H487E,with no effect
13,H487K,with no effect
14,T480A,with no effect
15,T480E,with no effect
16,T480K,with no effect
17,E455K,disrupting interaction strength
18,E455A,with no effect
19,T473A,with no effect
20,T473K,with no effect
21,T473E,with no effect
22,I461E,with no effect

row,Variant,effect of a mutation on the interaction
1,I461A,with no effect
2,I461K,with no effect
3,L493P,disrupting interaction strength
4,L493K,with no effect
5,L493E,with no effect
6,L493A,with no effect
7,P474K,disrupting interaction strength
8,P474E,disrupting interaction strength
9,P474A,with no effect
10,Q482A,with no effect
11,Q482K,with no effect
12,Q482E,with no effect
13,D501E,with no effect
14,D501A,with no effect
15,D501K,with no effect
16,G463A,with no effect
17,G463E,with no effect
18,G463K,with no effect
19,H498K,with no effect
20,H498E,with no effect
21,H498A,with no effect
22,Q477A,disrupting interaction strength

row,Variant,effect of a mutation on the interaction
1,Q477E,with no effect
2,Q477K,with no effect
3,L491P,disrupting interaction strength
4,L491A,with no effect
5,L491K,with no effect
6,L491E,with no effect
7,T467E,with no effect
8,T467A,with no effect
9,T467K,with no effect
10,P490K,with no effect
11,P490A,with no effect
12,P490E,with no effect
13,P490L,disrupting interaction strength
14,P478E,with no effect
15,P478A,with no effect
16,P478K,with no effect
17,T451E,with no effect
18,T451K,with no effect
19,T497A,with no effect
20,T497K,with no effect
21,T497E,with no effect
